The test addresses T1, Ocr (overcome classical restriction) protein of bacteriophage T7, unmodified (bacteriophage T7), P03775.
T1 chain: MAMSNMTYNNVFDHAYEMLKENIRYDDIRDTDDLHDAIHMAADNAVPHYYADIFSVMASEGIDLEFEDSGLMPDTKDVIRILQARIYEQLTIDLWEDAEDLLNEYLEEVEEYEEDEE
Briefly: native gel or EMSA; blue native PAGE (NativePAGE Novex 4-16% Bis-Tris) of unmodified Ocr; also native 15% PAGE, non-denaturing reducing conditions. The settings on record: remark: other sources report otherwise. In general terms: In EMSA bound probe runs differently from free probe, usually more slowly.

In article PMC2806950 one finds stoichiometry N data, which are given here for one molecule.

The term stoichiometry N denotes the number of molecules, sites or subunits per partner or assembly.

B1: Ocr (overcome classical restriction) protein of bacteriophage T7, unmodified, P03775 1-117 (natural protein)
chain: MAMSNMTYNNVFDHAYEMLKENIRYDDIRDTDDLHDAIHMAADNAVPHYYADIFSVMASEGIDLEFEDSGLMPDTKDVIRILQARIYEQLTIDLWEDAEDLLNEYLEEVEEYEEDEE
Take B1: the stoichiometry N was found to be 4.
